Experimental findings from publication PMC6375729 (Molecular Cell, 2019) are described below.

Where no end group is shown, it is not given here.

Holding throughout (details): both partners purified
In experiment [1] the target is BRD4 second bromodomain (BD2), D334-E460 (human, UniProt O60885-1 334-460). The experiment can be described thus: ITC; peptide in the syringe titrated into protein in the cell; 15 °C; 50 mM HEPES pH 7.5, 150 mM NaCl; single binding site model.
The target of experiment [2] is BRD4 first bromodomain (BD1), N44-E168 (human, UniProt O60885-1 44-168). Described as above.
Experiment [3] concerns the target hexa-His-tagged BRD4 extra-terminal domain (BRD4/ET) (human, UniProt O60885-1 589-676). The experiment can be described thus: peptide or protein array; cellulose SPOT peptide arrays probed with hexa-His-tagged BRD4 domains, detected with HRP-conjugated anti-His antibody.

B1: FOXD3 K235ac/K238ac peptide (peptide)
chain: RRRK(Ac)RFK(Ac)RHQ
Turning to B1, in experiment [1], binding was put at a Kd of 7.75 ± 0.12 µM and the “stoichiometry N” value is 0.75 ± 0.029. Also, in experiment [2], the Kd worked out at 63.6 ± 1.6 µM and the “stoichiometry N” value is 0.64 ± 0.026.

B2: FOXO3 K242ac/K245ac peptide (peptide)
chain: DGGK(Ac)SGK(Ac)APR
Consider B2, for which, in experiment [1], the affinity, expressed as Kd, was 44.4 ± 2.89 µM and the “stoichiometry N” value amounted to 0.64 ± 0.021. Besides, in experiment [2], binding was put at a Kd of 16.4 ± 0.5 µM and the “stoichiometry N” value amounted to 0.49 ± 0.005.

B3: PTEN K125ac/K128ac peptide (peptide)
chain: IHCK(Ac)AGK(Ac)GRT
In the case of B3, in experiment [1], the Kd came to 44.8 ± 3.03 µM and the “stoichiometry N” value came to 0.6 ± 0.021. Besides, in experiment [2], the Kd came out at 137 ± 16.9 µM and the “stoichiometry N” value stood at 0.81 ± 0.082.

B4: FOXN3 K426ac/K429ac peptide (peptide)
chain: HFAK(Ac)ARK(Ac)VPS
For B4, the values for the Kd in experiment [1] and in experiment [2] were 25.7 ± 1.8 µM and 37.8 ± 3.61 µM, respectively. The “stoichiometry N” value in experiment [1] was 0.59 ± 0.018; in experiment [2], 0.62 ± 0.311.

B5: DMTF1 K147ac/K150ac peptide (peptide)
chain: LTNK(Ac)GHK(Ac)WKQ
As to B5, in experiment [1], the affinity, expressed as Kd, was 29.4 ± 1.84 µM and the “stoichiometry N” value turned out to be 1.1 ± 0.031. In experiment [2], binding was put at a Kd of 70.4 ± 3 µM and the “stoichiometry N” value was 0.99 ± 0.061.

B6: RPS26 peptide region, residues 31-48 (SPOT) (peptide, UniProt P62854 31-48, looked up)
peptide: PKDKAIKKFVIRNIVEAA
notes: RPS26 residues 31-48, motif printed as KFVIK; source: synthesised on cellulose membrane (SPOT)
In the case of B6, the binding result in experiment [3] was “binds”.

B7: WHSC1L1 peptide, amino acids 147–162 (SPOT) (peptide, UniProt Q9BZ95 147-162, looked up)
peptide: KTGSPEIKLKITKTIQ
notes: source: synthesised on cellulose membrane (SPOT)
Consider B7, for which the binding result in experiment [3] is given as “binds”.

B8: FOXO3 K259ac/K262ac peptide (peptide)
chain: NSNK(Ac)YTK(Ac)SRG
Turning to B8, in experiment [2], the Kd is 158 ± 20.1 µM and the “stoichiometry N” value came to 0.58 ± 0.385.
